Measured values: PMC6805484 (2019)

B1: GFP-MKRN1^wt (Makorin Ring Finger Protein 1, wild type, N-terminally GFP-tagged) [human] / cytoplasmic poly(A)-binding protein PABPC4 (endogenous) [human (endogenous in HEK293T)] (parent complex)
chain 1: MAEAATPGTTATTSGAGAAAATAAAASPTPIPTVTAPSLGAGGGGGGSDGSGGGWTKQVTCRYFMHGVCKEGDNCRYSHDLSDSPYSVVCKYFQRGYCIYGDRCRYEHSKPLKQEEATATELTTKSSLAASSSLSSIVGPLVEMNTGEAESRNSNFATVGAGSEDWVNAIEFVPGQPYCGRTAPSCTEAPLQGSVTKEESEKEQTAVETKKQLCPYAAVGECRYGENCVYLHGDSCDMCGLQVLHPMDAAQRSQHIKSCIEAHEKDMELSFAVQRSKDMVCGICMEVVYEKANPSERRFGILSNCNHTYCLKCIRKWRSAKQFESKIIKSCPECRITSNFVIPSEYWVEEKEEKQKLILKYKEAMSNKACRYFDEGRGSCPFGGNCFYKHAYPDGRREEPQRQKVGTSSRYRAQRRNHFWELIEERENSNPFDNDEEEVVTFELGEMLLMLLAAGGDDELTDSEDEWDLFHDELEDFYDLDL
chain 2: MNAAASSYPMASLYVGDLHSDVTEAMLYEKFSPAGPVLSIRVCRDMITRRSLGYAYVNFQQPADAERALDTMNFDVIKGKPIRIMWSQRDPSLRKSGVGNVFIKNLDKSIDNKALYDTFSAFGNILSCKVVCDENGSKGYAFVHFETQEAADKAIEKMNGMLLNDRKVFVGRFKSRKEREAELGAKAKEFTNVYIKNFGEEVDDESLKELFSQFGKTLSVKVMRDPNGKSKGFGFVSYEKHEDANKAVEEMNGKEISGKIIFVGRAQKKVERQAELKRKFEQLKQERISRYQGVNLYIKNLDDTIDDEKLRKEFSPFGSITSAKVMLEDGRSKGFGFVCFSSPEEATKAVTEMNGRIVGSKPLYVALAQRKEERKAHLTNQYMQRVAGMRALPANAILNQFQPAAGGYFVPAVPQAQGRPPYYTPNQLAQMRPNPRWQQGGRPQGFQGMPSAIRQSGPRPTLRHLAPTGSECPDRLAMDFGGAGAAQQGLTDSCQSGGVPTAVQNLAPRAAVAAAAPRAVAPYKYASSVRSPHPAIQPLQAPQPAVHVQGQEPLTASMLAAAPPQEQKQMLGERLFPLIQTMHSNLAGKITGMLLEIDNSELLHMLESPESLRSKVDEAVAVLQAHHAKKEAAQKVGAVAAATS

Variants of: B1
Assay: AP with quantitative MS-based proteomics (SILAC); HEK293T cells; combined ratios of three replicates; read off a plot

screen value [z-score] | Variant
~-9.1 | chain 1 A169S, chain 1 F172A, chain 1 P174A
